Results published in patent US5618693, “Interleukin-2 signal transducers and binding assays” (Tularik, Inc.).

Target: hStat 5 (affinity purified, 98/94/88 kD from YT cells; 96/95 kD from PBLs) (Homo sapiens, UniProt P42229 SEQ:1-794)
Assay: pulldown; biotinylated DNA on streptavidin agarose, buffer C, 4 C; retained through wash with mutant oligo 0.2 mg/ml, eluted 0.35 M NaCl
Details: tags: native, tyrosine phosphorylated; chain copies: 2
Procedure: After dialysis, insoluble proteins were removed by centrifugation and the remaining material was chromatographed over a 100 ml S-Sepharose (Pharmacia) column. Protein flow-through was mixed with a DNA-affinity resin prepared by coupling synthetic, biotinylated DNA corresponding to the IL-4 response element of the gene encoding FcgRI (5'-[…]-3) (SEQ ID NO:3) to streptavidin agarose (Sigma). After binding (2 hours at 4° C.), the affinity matrix was placed on a disposable column and washed sequentially with 10 ml of buffer C, 4 ml of buffer C supplemented with a mutated variant of the IL-4 response element (5'-GTATCACCAGTCAAGGAAC-3') (SEQ ID NO:4) at 0.2 mg/ml, and 10 ml of buffer C. Protein was eluted by exposure to buffer C supplemented with 0.35M NaCl, dialyzed against buffer C, and placed on a 0.5 ml Q-Sepharose (Pharmacia) column. The column was washed with 5 ml of buffer C and protein was eluted with 1 ml of buffer C supplemented with 0.35M NaCl.

hStat 5 (affinity purified, 98/94/88 kD from YT cells; 96/95 kD from PBLs), sequence (P42229 whole entry): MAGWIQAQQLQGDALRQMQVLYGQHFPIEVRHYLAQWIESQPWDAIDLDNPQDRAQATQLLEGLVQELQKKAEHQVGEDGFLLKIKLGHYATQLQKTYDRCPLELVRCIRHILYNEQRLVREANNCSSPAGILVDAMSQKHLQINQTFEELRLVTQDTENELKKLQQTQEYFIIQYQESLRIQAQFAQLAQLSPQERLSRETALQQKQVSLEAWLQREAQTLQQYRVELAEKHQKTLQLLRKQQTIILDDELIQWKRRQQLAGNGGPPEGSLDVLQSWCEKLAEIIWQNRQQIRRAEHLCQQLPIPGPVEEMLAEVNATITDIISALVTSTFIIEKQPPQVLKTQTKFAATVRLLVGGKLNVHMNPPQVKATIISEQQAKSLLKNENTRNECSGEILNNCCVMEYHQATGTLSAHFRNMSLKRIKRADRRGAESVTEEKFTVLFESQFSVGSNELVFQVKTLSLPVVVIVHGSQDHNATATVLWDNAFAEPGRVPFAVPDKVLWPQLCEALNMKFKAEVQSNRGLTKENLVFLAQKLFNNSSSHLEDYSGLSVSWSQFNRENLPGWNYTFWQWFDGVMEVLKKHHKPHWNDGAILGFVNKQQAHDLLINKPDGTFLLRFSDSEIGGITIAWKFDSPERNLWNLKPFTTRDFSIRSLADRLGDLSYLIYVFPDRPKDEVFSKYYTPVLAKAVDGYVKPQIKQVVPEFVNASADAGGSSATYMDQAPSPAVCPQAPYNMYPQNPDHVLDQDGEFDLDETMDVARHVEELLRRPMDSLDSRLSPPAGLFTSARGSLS

B1: FcgRI IL-4 response element probe (dsDNA)
DNA 1: GTATTTCCCAGAAAAGGAAC
DNA 2: GTTCCTTTTCTGGGAAATAC
B1: binds.
